The subject of data set [1] is G. max ALS1 protein. The experiment in a line: Substrate specificity ratio (Rf), pyruvate versus 2-ketobutyrate, LC-MS of reduced products. Conditions: ratio of [pyruvate] to [2-ketobutyrate] giving equal rates of acetolactate and acetohydroxybutyrate formation; 25 mM pyruvate. The class given is biochemical, Glycine max. An excerpt:
The “substrate specificity ratio”, or “Rf”, characterizes the specificity of the ALS enzyme for AHB formation relative to AL formation (Gollop et al. (1989) Biochemistry 28:6310-6317). Rf is the ratio of [pyruvate] to [2-ketobutyrate] that results in equal rates of formation of acetolactate and acetohydroxybutyrate. Rf is a constant at all substrate concentrations. The substrate specificity ratio is ˜114 for the wild type Glycine max ALS1 enzyme (SEQ ID NO:1) compared to ˜3 for the highly resistant allele (HRA) double mutant variant (SEQ ID NO: 10) of the Glycine max ALS1. The soybean HRA sequence is disclosed, for example, in WO2007/024782, herein incorporated by reference.
Substrate preference was determined using the assay described in Example 3; however, the assay was conducted using a constant concentration of pyruvate (25 mM) and varying concentrations of the second substrate, 2-ketobutyrate. Each reaction involving a specific ratio of pyruvate to 2-ketobutyrate, after a set period of time, was quenched by addition of sodium borohydride (7-fold excess) to form the reduced adducts of the products of the two substrates namely; reduced acetolactate for the reaction with pyruvate and reduced aceto hydroxybutyrate for the 2-ketobutyrate reaction. The relative amounts of the two reduced products was determined by first, chromatographic separation using a 4.6×250 mm dC18 column (Atlantis) equilibrated with a 0.1% formic acid solution and subsequent elution using a methanol gradient at 0.7 ml/min, followed by detection using a Thermo FINNIGAN® LTQ® Mass Spectrometer (MS). The products of the two reactions were quantified by integration of the MS signals. The % of the amount of each of the reduced products was then plotted versus the concentration of 2-ketobutyrate. As the 2-ketobutyrate amount increased there was a consequent increase in reduced acetohydroxybutyrate (AHB) and decrease in reduced acetolactate (AL). […] The substrate specificity ratio was ˜114 for the wild type enzyme compared to 3 for the highly resistant allele (HRA) double mutant ALS variant (SEQ ID NO: 10).

Data set [2] has as its system G. max ALS1 protein. Nature of the data set: Colorimetric ALS kinetic assay (Km, kcat) with pyruvate as substrate. The class given is biochemical, Glycine max. On the procedure:
A survey of known ALS (AcetoLactate Synthase) gene variants (Table 2) was performed, and a number of ALS variants were selected for kinetic evaluation based on breadth and strength of insensitivity to ALS-inhibitor herbicides as well as kinetic activity parameters including the ratio of substrate preferences. The selected ALS gene variants (Table 3) were generated by PCR mediated site-directed mutagenesis. Finnzymes PHUSION® DNA polymerase (Cat. No. F-530S) was used for the PCR reactions, following the instructions for recommended temperatures and cycles in the PHUSION® protocol. Some mutagenesis reactions were assisted by the use of IN-FUSION® enzyme (Clontech Cat. No. 639620) to circularize a linear plasmid with the mutation located within the 15 nucleotide overlapping ends, via recombination following the manufacturer's protocol for primer design and reaction conditions. The ALS genes, beginning with encoded amino acids SISK, (S48 to K51 in the G. max ALS1 protein (SEQ ID NO:1) corresponding to the mature protein N-terminus of the chloroplast localized enzyme), were cloned into the PMAL® E. coli expression vector (New England Biolabs) to express ALS as a fusion protein with a Maltose-Binding Protein (MBP) at the N-terminus with a thrombin site for cleavage and a His-6 tag for affinity purification. All in vitro protein characterization described in the examples was carried out with the isolated proteins after cleavage from the His-MBP fusion partner.
Km and Kcat determinations for recombinant ALS variants (with respect to pyruvate as the substrate) were performed using a colorimetric assay. ALS assays were carried out in 96-well microplates with 150 ul reaction containing 25 mM potassium phosphate, 0.2 mg/ml BSA, 15 mM MgCl2, 0.7 mM TPP, 28 uM FAD and 0-100 mM sodium pyruvate. Reactions were initiated by the addition of ALS enzyme to a final amount of 0.8 ug/well. Parameters for Km and Vmax were determined by fitting the velocity versus substrate concentration data to a rectangular hyperbola using GraphPad Prism software. Kcat values were determined from Vmax based on protein concentration in the reactions.

B1: GM-ALS_G102S: Glycine Max ALS1 variant with a G→S mutation at position 102 (protein)
chain: MAATASRTTRFSSSSSHPTFPKRITRSTLPLSHQTLTKPNHALKIKCSISKPPTAAPFTKEAPTTEPFVSRFASGEPRKGADILVEALERQGVTTVFAYPGSASMEIHQALTRSAAIRNVLPRHEQGGVFAAEGYARSSGLPGVCIATSGPGATNLVSGLADALMDSVPVVAITGQVPRRMIGTDAFQETPIVEVSRSITKHNYLILDVDDIPRVVAEAFFVATSGRPGPVLIDIPKDVQQQLAVPNWDEPVNLPGYLARLPRPPAEAQLEHIVRLIMEAQKPVLYVGGGSLNSSAELRRFVELTGIPVASTLMGLGTFPIGDEYSLQMLGMHGTVYANYAVDNSDLLLAFGVRFDDRVTGKLEAFASRAKIVHIDIDSAEIGKNKQAHVSVCADLKLALKGINMILEEKGVEGKFDLGGWREEINVQKHKFPLGYKTFQDAISPQHAIEVLDELTNGDAIVSTGVGQHQMWAAQFYKYKRPRQWLTSGGLGAMGFGLPAAIGAAVANPGAVVVDIDGDGSFIMNVQELATIRVENLPVKILLLNNQHLGMVVQWEDRFYKSNRAHTYLGDPSSESEIFPNMLKFADACGIPAARVTKKEELRAAIQRMLDTPGPYLLDVIVPHQEHVLPMIPSNGSFKDVITEGDGRTRY
modifications: ALS1 variant G102S
Take B1: in the data set on G. max ALS1 protein [1], the “Substrate specificity ratio (Rf)” value was 10.2. In the data set on G. max ALS1 protein [2], the Km is 3.5 mM and the kcat turned out to be 1.33 s⁻¹.

B2: GM-ALS_A103T: Glycine Max ALS1 variant with a A→T mutation at position 103 (protein)
chain: MAATASRTTRFSSSSSHPTFPKRITRSTLPLSHQTLTKPNHALKIKCSISKPPTAAPFTKEAPTTEPFVSRFASGEPRKGADILVEALERQGVTTVFAYPGGTSMEIHQALTRSAAIRNVLPRHEQGGVFAAEGYARSSGLPGVCIATSGPGATNLVSGLADALMDSVPVVAITGQVPRRMIGTDAFQETPIVEVSRSITKHNYLILDVDDIPRVVAEAFFVATSGRPGPVLIDIPKDVQQQLAVPNWDEPVNLPGYLARLPRPPAEAQLEHIVRLIMEAQKPVLYVGGGSLNSSAELRRFVELTGIPVASTLMGLGTFPIGDEYSLQMLGMHGTVYANYAVDNSDLLLAFGVRFDDRVTGKLEAFASRAKIVHIDIDSAEIGKNKQAHVSVCADLKLALKGINMILEEKGVEGKFDLGGWREEINVQKHKFPLGYKTFQDAISPQHAIEVLDELTNGDAIVSTGVGQHQMWAAQFYKYKRPRQWLTSGGLGAMGFGLPAAIGAAVANPGAVVVDIDGDGSFIMNVQELATIRVENLPVKILLLNNQHLGMVVQWEDRFYKSNRAHTYLGDPSSESEIFPNMLKFADACGIPAARVTKKEELRAAIQRMLDTPGPYLLDVIVPHQEHVLPMIPSNGSFKDVITEGDGRTRY
modifications: ALS1 variant A103T
For the molecule B2, in the data set with G. max ALS1 protein [1], the “Substrate specificity ratio (Rf)” value is 83.3. Further, in the data set on G. max ALS1 protein [2], the Km is 3 mM and the turnover number (kcat) was found to be 1.82 s⁻¹.

B3: GM-ALS_G102S_P178S: Glycine Max ALS1 with G→S at position 102 and P→S at position 178 (protein)
chain: MAATASRTTRFSSSSSHPTFPKRITRSTLPLSHQTLTKPNHALKIKCSISKPPTAAPFTKEAPTTEPFVSRFASGEPRKGADILVEALERQGVTTVFAYPGSASMEIHQALTRSAAIRNVLPRHEQGGVFAAEGYARSSGLPGVCIATSGPGATNLVSGLADALMDSVPVVAITGQVSRRMIGTDAFQETPIVEVSRSITKHNYLILDVDDIPRVVAEAFFVATSGRPGPVLIDIPKDVQQQLAVPNWDEPVNLPGYLARLPRPPAEAQLEHIVRLIMEAQKPVLYVGGGSLNSSAELRRFVELTGIPVASTLMGLGTFPIGDEYSLQMLGMHGTVYANYAVDNSDLLLAFGVRFDDRVTGKLEAFASRAKIVHIDIDSAEIGKNKQAHVSVCADLKLALKGINMILEEKGVEGKFDLGGWREEINVQKHKFPLGYKTFQDAISPQHAIEVLDELTNGDAIVSTGVGQHQMWAAQFYKYKRPRQWLTSGGLGAMGFGLPAAIGAAVANPGAVVVDIDGDGSFIMNVQELATIRVENLPVKILLLNNQHLGMVVQWEDRFYKSNRAHTYLGDPSSESEIFPNMLKFADACGIPAARVTKKEELRAAIQRMLDTPGPYLLDVIVPHQEHVLPMIPSNGSFKDVITEGDGRTRY
modifications: ALS1 variant G102S P178S
For the molecule B3, the “Substrate specificity ratio (Rf)” value with G. max ALS1 protein [1] was 12.0. Besides, in the data set with G. max ALS1 protein [2], the Km worked out at 5 mM and the kcat was 1.47 s⁻¹.

B4: GM-ALS_G102S_D357N: Glycine Max ALS1 with G→S at position 102 and D→N at position 357 (protein)
chain: MAATASRTTRFSSSSSHPTFPKRITRSTLPLSHQTLTKPNHALKIKCSISKPPTAAPFTKEAPTTEPFVSRFASGEPRKGADILVEALERQGVTTVFAYPGSASMEIHQALTRSAAIRNVLPRHEQGGVFAAEGYARSSGLPGVCIATSGPGATNLVSGLADALMDSVPVVAITGQVPRRMIGTDAFQETPIVEVSRSITKHNYLILDVDDIPRVVAEAFFVATSGRPGPVLIDIPKDVQQQLAVPNWDEPVNLPGYLARLPRPPAEAQLEHIVRLIMEAQKPVLYVGGGSLNSSAELRRFVELTGIPVASTLMGLGTFPIGDEYSLQMLGMHGTVYANYAVDNSDLLLAFGVRFDNRVTGKLEAFASRAKIVHIDIDSAEIGKNKQAHVSVCADLKLALKGINMILEEKGVEGKFDLGGWREEINVQKHKFPLGYKTFQDAISPQHAIEVLDELTNGDAIVSTGVGQHQMWAAQFYKYKRPRQWLTSGGLGAMGFGLPAAIGAAVANPGAVVVDIDGDGSFIMNVQELATIRVENLPVKILLLNNQHLGMVVQWEDRFYKSNRAHTYLGDPSSESEIFPNMLKFADACGIPAARVTKKEELRAAIQRMLDTPGPYLLDVIVPHQEHVLPMIPSNGSFKDVITEGDGRTRY
modifications: ALS1 variant G102S D357N
Regarding B4, the “Substrate specificity ratio (Rf)” value with G. max ALS1 protein [1] turned out to be 10.7. Also, in the data set with G. max ALS1 protein [2], the Km was 11 mM and the kcat amounted to 1.13 s⁻¹.

B5: GM-ALS_G102S_D357E: Glycine Max ALS1 with G→S at position 102 and D→E at position 357 (protein)
chain: MAATASRTTRFSSSSSHPTFPKRITRSTLPLSHQTLTKPNHALKIKCSISKPPTAAPFTKEAPTTEPFVSRFASGEPRKGADILVEALERQGVTTVFAYPGSASMEIHQALTRSAAIRNVLPRHEQGGVFAAEGYARSSGLPGVCIATSGPGATNLVSGLADALMDSVPVVAITGQVPRRMIGTDAFQETPIVEVSRSITKHNYLILDVDDIPRVVAEAFFVATSGRPGPVLIDIPKDVQQQLAVPNWDEPVNLPGYLARLPRPPAEAQLEHIVRLIMEAQKPVLYVGGGSLNSSAELRRFVELTGIPVASTLMGLGTFPIGDEYSLQMLGMHGTVYANYAVDNSDLLLAFGVRFDERVTGKLEAFASRAKIVHIDIDSAEIGKNKQAHVSVCADLKLALKGINMILEEKGVEGKFDLGGWREEINVQKHKFPLGYKTFQDAISPQHAIEVLDELTNGDAIVSTGVGQHQMWAAQFYKYKRPRQWLTSGGLGAMGFGLPAAIGAAVANPGAVVVDIDGDGSFIMNVQELATIRVENLPVKILLLNNQHLGMVVQWEDRFYKSNRAHTYLGDPSSESEIFPNMLKFADACGIPAARVTKKEELRAAIQRMLDTPGPYLLDVIVPHQEHVLPMIPSNGSFKDVITEGDGRTRY
modifications: ALS1 variant G102S D357E
Consider B5, for which the “Substrate specificity ratio (Rf)” value in the data set on G. max ALS1 protein [1] was 16.9. In the data set on G. max ALS1 protein [2], the Km was determined as 8 mM and the kcat came to 1.75 s⁻¹.

Source of the values: patent publication US10294487B2, “Methods and compositions involving ALS variants with native substrate preference” (E I DU PONT DE NEMOURS AND COMPANY, priority 2012, dated 2019).
